According to patent publication US20250147051A1 (GTINVENT, published 2025):
Where a chain is given by its changes, count along the chain named. Like-named read-outs stand apart in the source and are kept apart here.

B1: CE3 scAb (scFv)
scFv: QVRLQESGPSLVKPSQTLSVTCTVSGFSLISNAVGWVRQAPGKVPESLAGCSSDGKCYYNSALKSRLDITRDTSKNQISLSLSSVTTDDAAVYYCTRGYYPVYGYDYLGTIDYWGPGLLVTVSSEGKSSGASGESKVDDQAVLTQPSSVSGSLGQRVSITCSGSSSNVGRNDVAWFQQLPGSGLRTIIYGTTSRPSGIPDRFSGSKSGVTATLTIDSLQAEDEADYFCASGDSSAINDIFGSGTRLTVLG
notes: scAb (scFv-HuCk-His)
B2: CB3 scAb (scFv)
scFv: QVQLQESGPSLVKPSQTLSLTCTVSGFSLSSVAVNWVRQAPGKVPEWLGGIISNGGTGYNPALKSRLSITRDTSKSQVSLALTHVTTEDTAVYYCGRGVEWEGSMDYLGPGLLVTVSSEGKSSGSGSETKVDDQSVLTQPSSVSGFLGQRVTITCSGSSSNVGAGSYVGWYQQVPGSGLRILIYGATKRASGLPDRFSGSRSGNTATLTISSLQAEDEADYYCVSYQTDFTLVFGSGTRLTVLG
notes: scAb (scFv-HuCk-His)
B3: 412G11 (scFv)
scAb: QVRLQESGPSLVKPSQTLSLTCTVSGFSLTSYALGWVRQAPGRAPEWIGNIWRGGRIEYNPALKSRLSITRDTSKSQVSLSLSSVTTEDTAVYYCSRSGGDWGPGLLVTVSSEGKSSGASGESKVDDQAVLTQPSSVSGSLGQRVSITCSGSSSNVGYGNYVGWYQQVPGSAPKLLIYGATSRASGVPDRFSGSRSENTATLTISSLQAEDEADYYCASYDRSESVVFGSGTRLTVLG
B4: CB7 mAb (antibody, mouse IgG2a, V domains shown)
VH: QVQLQESGPSLVKPSQTLSLTCTVSGFSLTNYRVGWVRQAPGKALEWVSNIRSGGTTWYNPALKSRLSITADTSKSQVSLSLSSVTTEDTAVYYCARDSSGDLYAYDYWGPGLLVTVSS
VL: QAVLTQPSSVSRSLGQSVSMTCSGSSSNVGYGNYMAWFQQVPGSAPKLLIYGATSRASGVPDRFSGSRSGNTATLTISSLQAEDEADYYCASYDSTSGGVFGSGTRLTVLG
notes: also called CB7 antibody
B5: CC7 mAb (antibody, mouse IgG2a, V domains shown)
VH: QVQLQESGPSLVKPSQTLSLTCTVSGFSLTSNAVIWVRQAPGKAPEWVALIDVDGDAAYDPALKSRLSITRDTSKSQVSLSLRSVTTEDTAVYYCARDYGSWGYVSDIDYWGPGLLVTVSS
VL: RVVRTQPSSVSGSLGQRVSITCSGSYITGSSVGWFQQVPGSGLKTVIYDNNDRPSGVPDRFSGSKSGDTATLTISSLQAEDEADYYCASYDTSNIGLFGSGTRLTVLG
notes: also called CC7 antibody
B6: CA4 scAb (scFv)
scFv: QVQLQESGPSLVKPSQTLSLTCTVSGFSLTSYSVYWVRQAPGQALEWISIMYASGRVDYNPALKSRLSITRDTSKSQFSLSLSSVTTEDTAVYYCTRGIENWGPGLLVTVSSEGKSSGASGESKVDDDIQVTQSPSSLSASLTERVSITCRTSQSVNNYLSWYQQKPGQAPKLLIYYATRLYTDVPSRFSGSGSGTDYTLTITSLEADDTATYYCLQYDSTPLAFGGGTNVEIK
notes: scAb (scFv-HuCk-His)
B7: S1G10 scAb (scFv)
scFv: QVQLQESGPSLVKPSQTLSLTCTVSGFSLTSNSVGWVRQAPGKAPEWVAGIDTDGEEGYNPALNSRLSITRDTSKSQVSLSLSSVTSEDTAVYYCGRSYRADGLAYGYVQAIDYWGPGLLVTVSSEGKSSGASGESKVDDQAVLTQPSSMSGSLGQRVSITCSGSFIGISSVGWFQQLPGSGLRTIIVASDGRPSGVPDRFSMSKSGNTATLTISSLQAEDEADYFCGSSDRTQYTGVFGSGTRLTVLG
notes: scAb (scFv-HuCk-His)
B8: S1G2 scAb (scFv)
scFv: B7 scFv with L144V, M150V, Q234P
notes: scAb (scFv-HuCk-His)
B9: CA9 scAb (scFv)
scFv: B7 scFv with A101S, S148A, M150V
notes: scAb (scFv-HuCk-His)
B10: CC7 scAb (scFv)
scFv: QVQLQESGPSLVKPSQTLSLTCTVSGFSLTSNAVIWVRQAPGKAPEWVALIDVDGDAAYDPALKSRLSITRDTSKSQVSLSLRSVTTEDTAVYYCARDYGSWGYVSDIDYWGPGLLVTVSSEGKSSGASGESKVDDRVVRTQPSSVSGSLGQRVSITCSGSYITGSSVGWFQQVPGSGLKTVIYDNNDRPSGVPDRFSGSKSGDTATLTISSLQAEDEADYYCASYDTSNIGLFGSGTRLTVLG
notes: scAb (scFv-HuCk-His)
B11: CB7 scAb (scFv)
scFv: QVQLQESGPSLVKPSQTLSLTCTVSGFSLTNYRVGWVRQAPGKALEWVSNIRSGGTTWYNPALKSRLSITADTSKSQVSLSLSSVTTEDTAVYYCARDSSGDLYAYDYWGPGLLVTVSSEGKSSGASGESKVDDQAVLTQPSSVSRSLGQSVSMTCSGSSSNVGYGNYMAWFQQVPGSAPKLLIYGATSRASGVPDRFSGSRSGNTATLTISSLQAEDEADYYCASYDSTSGGVFGSGTRLTVLG
notes: scAb (scFv-HuCk-His)
B12: 412E10 scAb (scFv)
scFv: QVQLQESGPSLVKPSQTLSLTCTVSGFSVISDSVAWVRQAPGKVPEWLGASGSSGNKYYNPALKSRLSITRDTSKSQVSLSLSSVTTEDTAVYYCARGIIAGVDVWGRGLLVTVSSEGKSSGASGESKVDDQAVLTQPSSVSGSLGQRVSITCSGSSSNVGYGNYVGWYQQVPGSAPKLLIYGTAIRASGVPDRFSGSRSGDTATLTITSLQAEDEADYYCASYQSNYAFFGSGTRLTVLG
notes: scAb (scFv-HuCk-His)

Experiments:
DGAE + LMT Agg [1] = biological target: T1, DGAE + LMT Agg; experiment: sandwich ELISA, 423 mAb capture, dGAE species titrated, scAb detection at 10 ug/ml [D00041 Figure 34O]
T1 construct: also called dGAE agitated in the presence of LMTM (Total, Supernatant, Pellet)
Method: (§1) For preparing the aggregates, 10 μl 10 mM DTT was added to 1000 μl 100 μM dGAE and agitated with/without LMTM (1:5 ratio) at 700 rpm for 24 h at 37° C. Following overnight agitation, one third of each sample was kept aside as ‘total’ and the rest was spun down at 16000×g for 30 min and separated into ‘supernatant’ and ‘pellet’. The pellet was then resuspended in half the original volume for further experiments. […] Doubling dilutions of dGAE aggregate ‘total’, ‘supernatant’ and ‘pellet’ samples at 10 μg/ml starting concentration were added to designated wells in doubling dilutions in 1×PBS. dGAE monomer (non-aggregated) was included as assay control. All double dilutions were done in final volumes of 100 μl. This was left to incubate on lab bench for 1 h followed by the addition of test scAbs at 10 μg/ml.

[2] = biological target: T2, full length human tau protein 2N4R (hT40) (human, UniProt P10636 1-758); experiment: direct ELISA, coated hT40
T2 construct: recombinant protein; also called T441

[3] = biological target: T2, full length human tau protein 2N4R …; experiment: direct ELISA, coated hT40; remark: listed apart in the source
[4] = biological target: T3, mouse tau (Isoform Tau-A) (mouse, UniProt P10637 2-733); experiment: Western blot of brain homogenates
T3 construct: endogenous protein in mouse brain homogenate or plasma; isoform in the samples not determined; also called endogenous mouse tau

[5] = biological target: T4, human tau 296-390 (Line 1 transgene fragment) (human, UniProt P10636 613-707); experiment: Western blot of brain homogenates
T4 construct: also called L1 fragment; 10-kDa tau fragment

[6] = biological target: T2, full length human tau protein 2N4R …; experiment: sandwich ELISA, S1D12 mAb capture, colourimetric detection
Method: (§2) Full length tau (hT40), at 1 μg/ml starting concentration was added to designated wells and double diluted across rest of the plates and left to incubate at R/T for 1 h. A series of detection scAbs with varying epitope recognition properties were added at 10 μg/ml to designated wells (FIG. 22). For colourimetric detection HRP conjugated anti-HuCk secondary antibody was used and the resulting immunoreaction was developed and absorbance at 450 nm measured as described previously. Cut-off point for a positive binding event was an absorbance value of 0.3 following background subtraction. In order to enhance the assay sensitivity, a chemiluminescent detection method was adopted where 50 μL SuperSignal ELISA Femto Substrate (Thermo Scientific) was added to each well following incubation with anti-HuCK HRP antibody and subsequent washing. The luminescence was read using Clariostar Plus microplate reader. A further modification to this protocol was done where various detection scAbs were directly conjugated with HRP and detected using chemiluminescent protocol as before.

[7] = biological target: T2, full length human tau protein 2N4R …; experiment: sandwich ELISA, S1D12 mAb capture, chemiluminescence detection
Method: as §2

DGAE + LMT Agg [8] = biological target: T1, DGAE + LMT Agg; experiment: sandwich ELISA, 423 mAb capture, dGAE species titrated, scAb detection at 10 ug/ml [D00039 Figure 34F]
Method: as §1

T2 sequence (P10636 other isoform, or with tags, fused parts or gaps limits assumed): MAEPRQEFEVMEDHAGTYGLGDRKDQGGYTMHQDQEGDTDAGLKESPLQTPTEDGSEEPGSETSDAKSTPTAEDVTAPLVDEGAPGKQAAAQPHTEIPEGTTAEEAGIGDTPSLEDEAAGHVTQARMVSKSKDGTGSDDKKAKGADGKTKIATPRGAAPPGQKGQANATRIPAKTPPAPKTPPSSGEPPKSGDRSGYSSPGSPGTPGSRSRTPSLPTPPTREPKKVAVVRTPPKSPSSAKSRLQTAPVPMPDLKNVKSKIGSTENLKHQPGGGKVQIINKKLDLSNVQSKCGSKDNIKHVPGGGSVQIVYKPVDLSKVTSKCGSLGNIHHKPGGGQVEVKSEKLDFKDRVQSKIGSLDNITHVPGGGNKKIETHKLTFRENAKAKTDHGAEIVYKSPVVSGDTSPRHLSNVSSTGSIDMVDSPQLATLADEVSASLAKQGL
T1 sequence (fragment, as listed by the source limits assumed): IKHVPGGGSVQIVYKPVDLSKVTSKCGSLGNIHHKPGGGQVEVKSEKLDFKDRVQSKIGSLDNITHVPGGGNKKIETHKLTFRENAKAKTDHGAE
T3 sequence (P10637 other isoform, or with tags, fused parts or gaps limits assumed): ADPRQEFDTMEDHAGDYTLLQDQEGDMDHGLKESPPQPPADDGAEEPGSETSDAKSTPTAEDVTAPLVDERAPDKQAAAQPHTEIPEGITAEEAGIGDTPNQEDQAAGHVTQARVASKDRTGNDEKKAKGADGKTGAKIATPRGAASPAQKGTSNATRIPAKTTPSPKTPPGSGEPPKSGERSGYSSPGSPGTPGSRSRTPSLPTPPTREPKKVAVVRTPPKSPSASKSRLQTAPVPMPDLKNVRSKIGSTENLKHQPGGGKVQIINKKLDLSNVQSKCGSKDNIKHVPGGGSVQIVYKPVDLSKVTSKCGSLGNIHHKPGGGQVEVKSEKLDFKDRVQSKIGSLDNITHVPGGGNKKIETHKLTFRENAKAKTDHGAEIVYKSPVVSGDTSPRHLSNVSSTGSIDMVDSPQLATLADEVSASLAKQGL
T4 sequence (P10636 613-707): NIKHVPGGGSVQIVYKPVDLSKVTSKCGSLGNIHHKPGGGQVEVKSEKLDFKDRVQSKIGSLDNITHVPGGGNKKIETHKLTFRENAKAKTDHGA

Binder	LoD [6]	LoD [7]	also measured
B1	–	–	binding result (DGAE + LMT Agg [1]): binds
B2	–	–	EC50 (read off the curve) [2]: ~0.1 µg/mL
B3	–	–	EC50 (read off the curve) [3]: ~6 µg/mL
B4	–	–	binding result [4]: no binding (tested: 20 µg brain protein); binding result [5]: no binding (tested: 20 µg brain protein)
B5	–	–	binding result [4]: no binding (tested: 20 µg brain protein); binding result [5]: no binding (tested: 20 µg brain protein)
B6	6 ng/mL	0.37 ng/mL	–
B7	2 ng/mL	0.12 ng/mL	–
B8	–	0.12 ng/mL	–
B9	–	–	binding result (DGAE + LMT Agg [8]): binds
B10	6 ng/mL	3.33 ng/mL	–
B11	15 ng/mL	3.33 ng/mL	–
B12	20 ng/mL	0.37 ng/mL	–
